Tests used:
[1] = target: hemagglutinin on whole influenza A virions, A/Solomon Islands/3/06 H1N1 (Influenza A virus A/Solomon …); test: cell-based or functional assay
[2] = target: hemagglutinin on live influenza A virus, A/California/4/09 H1N1 (Influenza A virus …); test: cell-based or functional assay
[3] = target: hemagglutinin on whole influenza A virions, A/Wisconsin/67/05 H3N2 (Influenza A virus …); test: cell-based or functional assay
[4] = target: recombinant soluble homotrimeric HA, A/California/4/09 H1N1 (Influenza A virus …); test: microarray, transfection SN IgG, trimeric HA
[5] = target: recombinant soluble homotrimeric HA, A/Hong Kong/156/97 H5N1 (Influenza A virus A/Hong Kong/156/97 …); test: microarray, transfection SN IgG, trimeric HA
[6] = target: recombinant soluble homotrimeric HA, A/Anhui/1/05 H5N1 (Influenza A virus A/Anhui/1/2005(H5N1)); test: microarray, transfection SN IgG, trimeric HA
[7] = target: recombinant soluble homotrimeric HA, A/Indonesia/5/05 H5N1 (Influenza A virus …); test: microarray, transfection SN IgG, trimeric HA
[8] = target: recombinant soluble homotrimeric HA, A/Netherlands/219/03 H7N7 (Influenza A virus …); test: microarray, transfection SN IgG, trimeric HA
[9] = target: recombinant soluble homotrimeric HA, A/duck/Yangzhou/02/05 H8N4 (Influenza A virus …); test: microarray, transfection SN IgG, trimeric HA
[10] = target: recombinant soluble homotrimeric HA, A/northern shoveler/California/HKWF115/07 H6N4 (Influenza A virus A/northern …); test: microarray, transfection SN IgG, trimeric HA
[11] = target: recombinant soluble homotrimeric HA, A/South Carolina/1/18 H1N1 (Influenza A virus A/South Carolina/1/18 …); test: microarray, transfection SN IgG, trimeric HA
[12] = target: recombinant soluble homotrimeric HA, A/swine/Ontario/01911-2/99 H4N6 (Influenza A virus …); test: microarray, transfection SN IgG, trimeric HA
[13] = target: recombinant soluble homotrimeric HA, A/Egypt/3300-NAMRU3/08 H5N1 (Influenza A virus …); test: microarray, transfection SN IgG, trimeric HA
[14] = target: recombinant soluble homotrimeric HA, A/Wisconsin/67/05 H3N2 (Influenza A virus …); test: microarray, transfection SN IgG, trimeric HA
[15] = target: recombinant soluble homotrimeric HA, A/chicken/Vietnam/NCVD-016/08 H5N1 (Influenza A virus …); test: microarray, transfection SN IgG, trimeric HA
[16] = target: recombinant soluble homotrimeric HA, A/Japan/305/57 H2N2 (Influenza A virus A/Japan/305/1957(H2N2)); test: microarray, transfection SN IgG, trimeric HA
[17] = target: recombinant soluble homotrimeric HA, A/Solomon Islands/3/06 H1N1 (Influenza A virus A/Solomon …); test: microarray, transfection SN IgG, trimeric HA
[18] = target: recombinant soluble homotrimeric HA, A/Vietnam/1203/04 H5N1 (Influenza A virus …); test: microarray, transfection SN IgG, trimeric HA
[19] = target: recombinant soluble homotrimeric HA of A/northern shoveler/California/HKWF115/07 (H6) (Influenza A virus A/northern …); test: trimeric HA microarray, transfection supernatant set 3
[20] = target: recombinant soluble homotrimeric HA of A/chicken/Vietnam/NCVD-016/08 (H5N1) (Influenza A virus …); test: as above
[21] = target: recombinant soluble homotrimeric HA of A/Egypt/3300-NAMRU3/08 (H5N1) (Influenza A virus …); test: as above
[22] = target: recombinant soluble homotrimeric HA of A/Wisconsin/67/05 (H3N2) (Influenza A virus …); test: as above
[23] = target: recombinant soluble homotrimeric HA of A/Hong Kong/2108/03 (H9N2) (Influenza A virus A/HK/2108/2003(H9N2)); test: as above
[24] = target: recombinant soluble homotrimeric HA of A/Anhui/1/05 (H5N1) (Influenza A virus A/Anhui/1/2005(H5N1)); test: as above
[25] = target: recombinant soluble homotrimeric HA of A/Hong Kong/1073/99 (H9N2) (Influenza A virus A/Hong Kong/1073/99 …); test: as above
[26] = target: recombinant soluble homotrimeric HA of A/duck/Yangzhou/02/05 (H8N4) (Influenza A virus …); test: as above
[27] = target: recombinant soluble homotrimeric HA of A/California/4/09 (H1N1) (Influenza A virus …); test: as above
[28] = target: recombinant soluble homotrimeric HA of A/Japan/305/57 (H2N2) (Influenza A virus A/Japan/305/1957(H2N2)); test: as above
[29] = target: recombinant soluble homotrimeric HA of A/Vietnam/1203/04 (H5N1) (Influenza A virus …); test: as above
[30] = target: recombinant soluble homotrimeric HA of A/Netherlands/219/03 (H7N7) (Influenza A virus …); test: as above
[31] = target: recombinant soluble homotrimeric HA of A/South Carolina/1/18 (H1N1) (Influenza A virus A/South Carolina/1/18 …); test: as above
[32] = target: recombinant soluble homotrimeric HA of A/Solomon Islands/3/06 (H1N1) (Influenza A virus A/Solomon …); test: as above
[33] = target: recombinant soluble homotrimeric HA of A/Indonesia/5/05 (H5N1) (Influenza A virus …); test: as above
[34] = target: recombinant homotrimeric HA A/Egypt/3300-NAMRU3/08 H5N1 (Influenza A virus …); test: protein microarray, purified IgG, trimeric HA
[35] = target: recombinant homotrimeric HA A/Indonesia/5/05 H5N1 (Influenza A virus …); test: protein microarray, purified IgG, trimeric HA
[36] = target: recombinant homotrimeric HA A/Netherlands/219/03 H7N7 (Influenza A virus …); test: protein microarray, purified IgG, trimeric HA
[37] = target: recombinant homotrimeric HA A/Vietnam/1203/04 H5N1 (Influenza A virus …); test: protein microarray, purified IgG, trimeric HA
[38] = target: recombinant homotrimeric HA A/northern shoveler/California/HKWF115/07 H6N4 (Influenza A virus A/northern …); test: protein microarray, purified IgG, trimeric HA
[39] = target: recombinant homotrimeric HA A/Anhui/1/05 H5N1 (Influenza A virus A/Anhui/1/2005(H5N1)); test: protein microarray, purified IgG, trimeric HA
[40] = target: recombinant homotrimeric HA A/Hong Kong/2108/03 H9N2 (Influenza A virus A/HK/2108/2003(H9N2)); test: protein microarray, purified IgG, trimeric HA
[41] = target: recombinant homotrimeric HA A/California/4/09 H1N1 (Influenza A virus …); test: protein microarray, purified IgG, trimeric HA
[42] = target: recombinant homotrimeric HA A/Hong Kong/156/97 H5N1 (Influenza A virus A/Hong Kong/156/97 …); test: protein microarray, purified IgG, trimeric HA
[43] = target: recombinant homotrimeric HA A/Hong Kong/1073/99 H9N2 (Influenza A virus A/Hong Kong/1073/99 …); test: protein microarray, purified IgG, trimeric HA
[44] = target: recombinant homotrimeric HA A/Wisconsin/67/05 H3N2 (Influenza A virus …); test: protein microarray, purified IgG, trimeric HA
[45] = target: recombinant homotrimeric HA A/Solomon Islands/3/06 H1N1 (Influenza A virus A/Solomon …); test: protein microarray, purified IgG, trimeric HA
[46] = target: recombinant homotrimeric HA A/South Carolina/1/18 H1N1 (Influenza A virus A/South Carolina/1/18 …); test: protein microarray, purified IgG, trimeric HA
[47] = target: recombinant homotrimeric HA A/Japan/305/57 H2N2 (Influenza A virus A/Japan/305/1957(H2N2)); test: protein microarray, purified IgG, trimeric HA
[48] = target: recombinant homotrimeric HA A/chicken/Vietnam/NCVD-016/08 H5N1 (Influenza A virus …); test: protein microarray, purified IgG, trimeric HA

B1: TCN-556 (5089_K12) (antibody, V domains shown)
VH: QVQLVQSGAEVKKPGASVKVSCKASGYTFIGYDMHWVRQAPGQGLEWMGWINAKRGGTNYAQKFQGRVTMTRDTSISTAYMELNSLRSDDTAVYYCARGVGSRTTIFGVLNPEFDYWGQGTLVTVSS
VL: QSALTQPPSASGSPGQSVTISCTGSSSDVGGYDYVSWYQQHPGKAPKLLIYEVTKRPSGVPDRFSGSKSGNTASLTVSGLQAEDEADYYCSSYAGNYNHVFGPGTKVTVL
With B1 the “% Neutralization” value [1] was 0%, the “% Neutralization” value [2] was 0% and the “% Neutralization” value [3] was 15%. The “Trimeric HA Binding: RLU” value [4] was 20900 RLU, the “Trimeric HA Binding: RLU” value [5] was 24600 RLU and the “Trimeric HA Binding: RLU” value [6] was 13800 RLU. The “Trimeric HA Binding: RLU” value [7] was 15200 RLU, the “Trimeric HA Binding: RLU” value [8] was 43600 RLU and the “Trimeric HA Binding: RLU” value [9] was 22400 RLU. For the same binder, the “Trimeric HA Binding: RLU” value [10] was 34800 RLU, the “Trimeric HA Binding: RLU” value [11] was 32700 RLU and the “Trimeric HA Binding: RLU” value [12] was 19300 RLU. The “Trimeric HA Binding: RLU” value [13] was 16600 RLU, the “Trimeric HA Binding: RLU” value [14] was 44700 RLU and the “Trimeric HA Binding: RLU” value [15] was 22700 RLU. The “Trimeric HA Binding: RLU” value [16] was 22800 RLU, the “Trimeric HA Binding: RLU” value [17] was 23400 RLU and the “Trimeric HA Binding: RLU” value [18] was 17400 RLU.

B2: TCN-533 (5256_A17a) (antibody, V domains shown)
VH: QVQLVQSGADVKKPGSSVTVSCKASGGSFSNYGINWVRQAPGQGLEWMGGIIPLINAPNYAPKFQGRVTITADMFSNIVSLQLTSLRTDDTAVYYCARRKMTTAIDYWGQGTLVTVSS
VL: QPVLTQPPSASASLGASVTLTCTLSSAYSNYKVDWYQQRPGKGPRFVMRVGTGGIVGSKGDGIPDRFSVLGSGLNRYLTIKNIQEEDESDYHCGADHGSGSNFVSPYVFGGGTKLTVL
In the case of B2, the “Trimeric HA Binding: RLU” value [19] is reported as 7810 RLU, the “Trimeric HA Binding: RLU” value [20] is reported as 24600 RLU and the “Trimeric HA Binding: RLU” value [21] is reported as 18600 RLU. The “Trimeric HA Binding: RLU” value [22] was 16100 RLU, the “Trimeric HA Binding: RLU” value [23] was 33 RLU and the “Trimeric HA Binding: RLU” value [24] was 301 RLU. For the same binder, the “Trimeric HA Binding: RLU” value [25] was 23800 RLU, the “Trimeric HA Binding: RLU” value [26] was 711 RLU and the “Trimeric HA Binding: RLU” value [27] was 6880 RLU. The “Trimeric HA Binding: RLU” value [28] was 18600 RLU, the “Trimeric HA Binding: RLU” value [29] was 11700 RLU and the “Trimeric HA Binding: RLU” value [30] was 209 RLU. The “Trimeric HA Binding: RLU” value [31] was 16400 RLU, the “Trimeric HA Binding: RLU” value [32] was 15500 RLU and the “Trimeric HA Binding: RLU” value [33] was 28300 RLU.

B3: TCN-533 (5256_A17a) (antibody, V domains shown)
VH: B2 VH
VL: B2 VL
In the case of B3, the “Trimeric HA Binding: RLU” value [34] is reported as 20600 RLU, the “Trimeric HA Binding: RLU” value [35] is reported as 23100 RLU and the “Trimeric HA Binding: RLU” value [36] is reported as 712 RLU. The “Trimeric HA Binding: RLU” value [37] was 26900 RLU, the “Trimeric HA Binding: RLU” value [38] was 20400 RLU and the “Trimeric HA Binding: RLU” value [39] was 5650 RLU. The “Trimeric HA Binding: RLU” value [40] was 164 RLU, the “Trimeric HA Binding: RLU” value [41] was 24000 RLU and the “Trimeric HA Binding: RLU” value [42] was 13200 RLU. For the same binder, the “Trimeric HA Binding: RLU” value [43] was 5810 RLU, the “Trimeric HA Binding: RLU” value [44] was 308 RLU and the “Trimeric HA Binding: RLU” value [45] was 12000 RLU. For the same binder, the “Trimeric HA Binding: RLU” value [46] was 8670 RLU, the “Trimeric HA Binding: RLU” value [47] was 23400 RLU and the “Trimeric HA Binding: RLU” value [48] was 5470 RLU.

B4: TCN-560 (5084_P10) (antibody, V domains shown)
VH: EVQLVESGGGLVQPGGSLRLSCAASGFIFRNYWMSWVRQAPGKGLEWVANIKQDGREKYYVDSLRGRVNISRDNAENSLYLHMNSLRVEDTAVYFCARARMVVVTGDGFDVWGHGTMVTVSS
VL: DIQMTQSPSSLSASVGDRVTITCRASQNIKRYFNWYQQKPGKAPKLLIYAASNLENGVPSRFSGSGSGTDFTLTISSLQPEDFATYYCQQSFSKSWTFGQGTNVDIK
With B4 the “% Neutralization” value [1] was 0%, the “% Neutralization” value [2] was 0% and the “% Neutralization” value [3] was 4%. For the same binder, the “Trimeric HA Binding: RLU” value [4] was 31100 RLU, the “Trimeric HA Binding: RLU” value [5] was 29300 RLU and the “Trimeric HA Binding: RLU” value [6] was 18600 RLU. For the same binder, the “Trimeric HA Binding: RLU” value [7] was 17000 RLU, the “Trimeric HA Binding: RLU” value [8] was 32100 RLU and the “Trimeric HA Binding: RLU” value [9] was 27900 RLU. For the same binder, the “Trimeric HA Binding: RLU” value [10] was 35900 RLU, the “Trimeric HA Binding: RLU” value [11] was 30500 RLU and the “Trimeric HA Binding: RLU” value [12] was 16800 RLU. For the same binder, the “Trimeric HA Binding: RLU” value [13] was 18700 RLU, the “Trimeric HA Binding: RLU” value [14] was 55400 RLU and the “Trimeric HA Binding: RLU” value [15] was 18200 RLU. For the same binder, the “Trimeric HA Binding: RLU” value [16] was 25900 RLU, the “Trimeric HA Binding: RLU” value [17] was 22400 RLU and the “Trimeric HA Binding: RLU” value [18] was 19500 RLU.
